The results in this text go back to patent publication US9383360B2, “Compositions and methods relating to lyme disease” (The United States of America, as represented by the …, priority 2012, dated 2016).

One assay addresses T1, Brevican (Homo sapiens, UniProt Q96GW7).
T1 sequence (Q96GW7 23-911): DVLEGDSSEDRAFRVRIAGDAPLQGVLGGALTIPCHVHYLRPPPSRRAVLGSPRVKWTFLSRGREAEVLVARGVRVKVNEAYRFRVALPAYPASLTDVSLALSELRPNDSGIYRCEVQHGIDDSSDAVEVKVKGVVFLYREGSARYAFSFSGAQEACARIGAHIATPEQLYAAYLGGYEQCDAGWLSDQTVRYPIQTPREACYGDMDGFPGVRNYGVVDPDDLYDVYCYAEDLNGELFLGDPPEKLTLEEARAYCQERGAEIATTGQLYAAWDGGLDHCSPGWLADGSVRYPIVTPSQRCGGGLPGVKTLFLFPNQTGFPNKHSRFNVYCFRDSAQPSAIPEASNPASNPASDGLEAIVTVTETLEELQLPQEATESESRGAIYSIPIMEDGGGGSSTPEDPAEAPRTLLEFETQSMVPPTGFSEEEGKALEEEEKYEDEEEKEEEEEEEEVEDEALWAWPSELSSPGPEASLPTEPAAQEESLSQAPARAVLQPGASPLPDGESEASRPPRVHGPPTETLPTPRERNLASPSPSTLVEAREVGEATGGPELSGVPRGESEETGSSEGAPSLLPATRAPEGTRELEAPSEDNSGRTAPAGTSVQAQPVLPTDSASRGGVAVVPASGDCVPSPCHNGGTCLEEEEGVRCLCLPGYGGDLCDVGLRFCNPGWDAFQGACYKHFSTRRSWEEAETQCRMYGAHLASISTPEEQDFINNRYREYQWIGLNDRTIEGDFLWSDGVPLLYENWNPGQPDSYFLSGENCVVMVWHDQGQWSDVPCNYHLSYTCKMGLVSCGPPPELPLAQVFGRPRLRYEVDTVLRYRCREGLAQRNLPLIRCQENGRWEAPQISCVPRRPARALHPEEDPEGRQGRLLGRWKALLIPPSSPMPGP
Description: BbHtrA proteolysis assay, brevican substrate. The settings on record: SDS-PAGE, FIG. 5. It is filed as biochemical. As to the method: (§1) For proteolysis assays described in Examples herein, purified protein substrates (200-600 nM) and proteases (100-150 nM) were diluted in assay buffer (50 mM HEPES, pH 7.4, 5 mM CaCl2) and incubated overnight at 37° C. Samples were boiled for 4 minutes to inactivate the proteases. Proteoglycans were deglycosylated by overnight incubation at 37° C. with 0.01 U chondroitinase ABC (Seikagaku). Reactions were stopped by the addition of SDS/PAGE sample buffer, boiled for 4 minutes, and electrophoresed on pre-cast Tris-glycine gels (BioRad). Reaction products were visualized by silver staining.
(§2) Purified proteins were incubated with BbHtrA or BbHtrA^S226A as described herein. HtrA (also known as DegP) proteases belong to the family of serine proteases which contain a highly reactive serine residue in their active site. This serine (Ser210 in DegP) is part of the canonical His-Ser-Asp catalytic triad and mutation of the catalytic serine abolishes proteolytic activity (Skorko-Glonek et al., 1995). In BbHtrA, residues His119, Ser226 and Asp149 form the catalytic triad and mutation of serine 226 to alanine abolished proteolytic activity as expected (FIG. 5).
(§3) Reaction products were separated by SDS-PAGE and silver stained. Native collagen II and recombinant tenascin C were not degraded by BbHtrA indicating selectivity for proteoglycans, E-cadherin and fibronectin. […]

A further assay concerns Biglycan. Description: BbHtrA proteolysis assay, biglycan substrate. Type of assay: biochemical, bovine, human. The settings on record: SDS-PAGE, FIG. 5. As to the method: as §1, §2, §3
In the next assay the test system is Plasma fibronectin. Description: BbHtrA proteolysis assay, plasma fibronectin substrate. Type of assay: biochemical, human. As to conditions: incubated overnight or 96 hours, SDS-PAGE, FIG. 8A. The method, then: as §1
BbHtrA generates pro-inflammatory amino terminal (Fnf-29) and carboxyl terminal (FnIII13-14) fibronectin fragments. […] Fibronectin was incubated with BbHtrA overnight (FIG. 8A, lane 1) or for 96 hours (FIG. 8A, lane 3). Reaction products were separated electrophoretically, and the bands were excised and analyzed by tandem LC MS/MS, FIG. 8B.

A further assay deals with Casein. Description: BbHtrA proteolysis assay, casein substrate. Type of assay: biochemical, bovine. The settings on record: SDS-PAGE, FIG. 5. As to the method:
as §1, §2, §3

The next assay addresses T2, β-casein (Bos taurus, UniProt P02666).
T2 construct: purchased Bio-Rad
T2 sequence (P02666 16-224): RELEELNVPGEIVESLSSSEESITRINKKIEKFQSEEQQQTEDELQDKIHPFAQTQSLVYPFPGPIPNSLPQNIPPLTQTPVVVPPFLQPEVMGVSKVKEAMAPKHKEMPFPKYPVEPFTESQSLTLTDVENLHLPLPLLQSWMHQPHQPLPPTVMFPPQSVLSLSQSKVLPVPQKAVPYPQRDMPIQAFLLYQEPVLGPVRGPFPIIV
Description: β-casein zymography. The settings on record: 1 μg recombinant protein, 12% β-casein zymogram gel, developed 40 h at 37° C., FIG. 12A. Type of assay: biochemical. The method, then:
Proteolytic activity was studied by zymography of lysates of the prototype strains of each of the major genospecies of Borrelia that cause Lyme disease. Borrelia burgdorferi (passage 4, non-clonal, infectious strain B31), Borrelia garinii (unknown passage, infectious strain FR-20047) and Borrelia afzelii (unknown passage, infectious strain ACA-1) were grown in Barbour-Stoenner-Kelly media (BSK II) supplemented with 6% rabbit serum at 37° C. Borrelial lysates (˜1×10^8 B. garinii, B. afzelii; ˜5×10^7 B. burgdorferi) and recombinant BbHtrA proteins (1 μg) were subjected to SDS-PAGE electrophoresis using 12% β-casein Zymogram Ready Gels (Bio-Rad). Following electrophoresis, the gels were renatured in 2.5% Triton X-100 (Sigma) for 60 min at 37° C. with a buffer change at 15 min. The gels were developed in Zymogram Development Buffer (BioRad) for 40 h at 37° C. with a buffer change at 15 min. Gels were stained (0.5% Coomassie Brilliant Blue R-250, 40% methanol, 10% glacial acetic acid) for 60 min at room temperature and then destained (40% methanol, 10% glacial acetic acid).

B1: BbHtrA: Recombinant wild type B. burgdorferi HtrA serine protease, mature protein amino acids 38-474, expressed in E. coli (SEQ ID NO:1, 9) (protein, listed as Borrelia burgdorferi)
chain: EEKDNTVRALQDSFREVSKKILPSSVEVHATGVIKQSFPIPFFFFDMPEFDSERKSNWAGSGVIIGRDSQKKSLFYVVTNSHVVDKATELEVVSYDKKKHKAKLIGKDEKKDIALISFESDDATIKVADLGDSDKLEIGDWVMAVGSPFQFSFTVTAGIVSGLQRSANPNLQSRNLFIQTDAAINRGNSGGPLVNIKGEVIGINAWIASNSGGNIGLGFAIPVNNIKSTVDFFLKGKKIESAWLGISFYPLKTRDSEVLKSLGVESNDVSAAIIASLYPGSPAVKSGLRAGDIIMKVNGVSMSVFQDVTSYISDFYAGEKVNVEILRGNVKKNIEIVLAVRPKDKELSSSKMLPGFVVYPLVEDIKAQLNLRNWIKGVVVDYIDKNLASNIKMKSGDVILSVNSKSVSNLREFYDALEVGKNTYKILRGNDSFKITF
B1: the Degradation of brevican entry with Brevican was “degrades”. Moreover, in the assay on Biglycan, the Degradation of biglycan result is reported as “degrades”. In addition, the Degradation of fibronectin result with Plasma fibronectin was “yielded distinct product bands”. The Degradation of casein result with Casein is recorded as “degrades”. In addition, the “Proteolytic activity against β-casein (clearing around the protein band)” value with β-casein is given as “proteolytically active”.
